From PMC2133165 (The Journal of Cell Biology, 1999)

Assays:
SF3a60 = biological target: T1, SF3a60 (human (endogenous in HeLa), UniProt Q12874 1-501); assay: co-IP
T1 sequence: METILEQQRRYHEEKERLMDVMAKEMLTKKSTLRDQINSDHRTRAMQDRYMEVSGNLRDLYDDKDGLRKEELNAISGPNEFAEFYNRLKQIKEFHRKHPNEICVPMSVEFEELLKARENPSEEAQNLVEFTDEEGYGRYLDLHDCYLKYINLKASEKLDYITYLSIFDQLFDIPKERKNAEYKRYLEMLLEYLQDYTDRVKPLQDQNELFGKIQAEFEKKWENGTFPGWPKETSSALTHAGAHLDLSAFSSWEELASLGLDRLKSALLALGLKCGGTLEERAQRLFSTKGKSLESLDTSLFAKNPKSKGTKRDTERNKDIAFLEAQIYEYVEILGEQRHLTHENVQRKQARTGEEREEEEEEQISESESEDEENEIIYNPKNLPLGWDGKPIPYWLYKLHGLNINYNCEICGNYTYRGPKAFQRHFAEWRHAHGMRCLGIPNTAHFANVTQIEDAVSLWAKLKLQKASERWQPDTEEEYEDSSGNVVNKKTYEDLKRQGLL

SF3a120 = biological target: T2, SF3a120 (human (endogenous in HeLa), UniProt Q15459 1-793); assay: co-IP
T2 sequence: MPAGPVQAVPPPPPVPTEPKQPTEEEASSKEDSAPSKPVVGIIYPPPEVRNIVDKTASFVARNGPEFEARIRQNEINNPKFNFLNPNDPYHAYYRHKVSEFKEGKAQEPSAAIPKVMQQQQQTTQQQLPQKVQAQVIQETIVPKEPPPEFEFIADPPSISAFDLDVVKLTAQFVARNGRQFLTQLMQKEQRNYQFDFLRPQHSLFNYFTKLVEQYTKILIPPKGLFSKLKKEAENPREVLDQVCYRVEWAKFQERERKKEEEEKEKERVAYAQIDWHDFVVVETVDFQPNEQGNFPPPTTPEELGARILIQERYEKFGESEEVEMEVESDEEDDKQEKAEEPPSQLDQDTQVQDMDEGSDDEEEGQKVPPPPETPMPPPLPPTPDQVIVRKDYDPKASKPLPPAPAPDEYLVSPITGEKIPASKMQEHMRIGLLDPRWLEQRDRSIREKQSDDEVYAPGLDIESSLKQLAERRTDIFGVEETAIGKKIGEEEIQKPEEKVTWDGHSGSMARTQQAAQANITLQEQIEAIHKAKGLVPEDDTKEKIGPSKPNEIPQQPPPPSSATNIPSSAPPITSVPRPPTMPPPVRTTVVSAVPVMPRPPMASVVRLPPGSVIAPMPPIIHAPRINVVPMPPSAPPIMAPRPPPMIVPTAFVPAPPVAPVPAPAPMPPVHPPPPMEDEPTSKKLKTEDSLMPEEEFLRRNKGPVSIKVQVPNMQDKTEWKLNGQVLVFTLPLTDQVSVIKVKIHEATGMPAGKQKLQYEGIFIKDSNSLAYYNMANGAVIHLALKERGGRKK

B1: SF3a66 (natural protein)
chain: MDFQHRPGGKTGSGGVASSSESNRDRRERLRQLALETIDINKDPYFMKNHLGSYECKLCLTLHNNEGSYLAHTQGKKHQTNLARRAAKEAKEAPAQPAPEKVKVEVKKFVKIGRPGYKVTKQRDSEMGQQSLLFQIDYPEIAEGIMPRHRFMSAYEQRIEPPDRRWQYLLMAAEPYETIAFKVPSREIDKAEGKFWTHWNRETKQFFLQFHFKMEKPPAPPSLPAGPPGVKRPPPPLMNGLPPRPPLPESLPPPPPGGLPLPPMPPTGPAPSGPPGPPQLPPPAPGVHPPAPVVHPPASGVHPPAPGVHPPAPGVHPPAPGVHPPTSGVHPPAPGVHPPAPGVHPPAPGVHPPAPGVHPPAPGVHPPPSAGVHPQAPGVHPAAPAVHPQAPGVHPPAPGMHPQAPGVHPQPPGVHPSAPGVHPQPPGVHPSNPGVHPPTPMPPMLRPPLPSEGPGNIPPPPPTN
Q: Does B1 bind (SF3a60)?
A: Result: binds

Q: Does B1 bind (SF3a120)?
A: Result: binds
